{"source": "paper PMC4837482", "about": "“The complex binding mode of the peptide hormone H2 relaxin to its receptor RXFP1” (Nature Communications, 2016)", "molecular_target": "T1, RXFP1(1–72) (Homo sapiens, UniProt Q9HBX9)", "T1 construct": "GB1 (N, cleaved yes); made in house; host or cells: E. coli BL21 (DE3) trxB", "T1 sequence (Q9HBX9 23-94 limits assumed)": "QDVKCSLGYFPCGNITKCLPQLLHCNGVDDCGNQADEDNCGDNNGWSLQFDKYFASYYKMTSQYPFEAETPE", "experiment": "2D 1H-15N HSQC monitored H2 relaxin titration of 15N-labelled RXFP1(1–72)", "conditions": "50 μM 15N-labelled RXFP1(1–72); single-site binding curve fit of Asp51, Ala55, Thr61 chemical shifts; pH 6.8, 25 °C; read-out: affinity (Kd) of H2 relaxin for RXFP1(1–72)", "description": "All RXFP1(1–72) protein samples for nuclear magnetic resonance (NMR) experiments were prepared from lyophilized protein in 50 mM imidazole, with 10 mM CaCl2 at pH 6.8. Recombinant human gene-2 H2 relaxin peptide was kindly provided by Corthera. EL1^(475–486)/EL2-GB1 samples were prepared as described above. Titrant and titrand were dialyzed in the same buffer in the same vessel. All NMR experiments were routinely collected at 25 °C on a 700-MHz Bruker Avance HDIII spectrometer equipped with triple resonance cryoprobe. […] Backbone assignments were made from 3D HNCACB, HNCOCACB, HNCO and HNCACO experiments. Spectra were processed using NMRPipe (ref. [43]) and typically Fourier-transformed after applying Lorentz-to-Gauss window functions in the direct dimension and cosine bells in the indirect dimensions. NMR data were analysed using SPARKY (Goddard, T.D. and Kneller, D.G., University of California, San Francisco). Assignments of the mutant RXFP1(1–72) proteins were determined from the assignments of wild-type RXFP1(1–72).\nThe binding of H2 relaxin to RXFP1(1–72) was monitored by acquiring 2D ^1H-^15N Heteronuclear Single Quantum Coherence (HSQC; 2,048 × 256 data points) for each titration point of increasing H2 relaxin: 25, 50, 100, 200, 400 and 500 μM against 50 μM RXFP1(1–72). […]", "note": "pKd: −log10 of the molar value. Values joined by “and” are separate entries in the source; they are usually repeats but may differ in a detail not shown here. Equal values may be shown once.", "data": [{"substance": "H2 relaxin: two-chain 6-kDa peptide hormone structurally related to insulin; recombinant human gene-2 H2 relaxin provided by Corthera", "values": [{"measurement": "pKd", "result": "3.70 and ~3.70"}]}]}
